{"source": "patent US20020052480A1", "key": {"[1]": {"target": "human fibroblast activation protein alpha (FAP), on the cell surface (HT-1080FAP clone 33, 293FAP I/2, MF-SH cells, tumor stromal fibroblasts) (human) (UniProt Q12884)", "sequence (Q12884 whole entry)": "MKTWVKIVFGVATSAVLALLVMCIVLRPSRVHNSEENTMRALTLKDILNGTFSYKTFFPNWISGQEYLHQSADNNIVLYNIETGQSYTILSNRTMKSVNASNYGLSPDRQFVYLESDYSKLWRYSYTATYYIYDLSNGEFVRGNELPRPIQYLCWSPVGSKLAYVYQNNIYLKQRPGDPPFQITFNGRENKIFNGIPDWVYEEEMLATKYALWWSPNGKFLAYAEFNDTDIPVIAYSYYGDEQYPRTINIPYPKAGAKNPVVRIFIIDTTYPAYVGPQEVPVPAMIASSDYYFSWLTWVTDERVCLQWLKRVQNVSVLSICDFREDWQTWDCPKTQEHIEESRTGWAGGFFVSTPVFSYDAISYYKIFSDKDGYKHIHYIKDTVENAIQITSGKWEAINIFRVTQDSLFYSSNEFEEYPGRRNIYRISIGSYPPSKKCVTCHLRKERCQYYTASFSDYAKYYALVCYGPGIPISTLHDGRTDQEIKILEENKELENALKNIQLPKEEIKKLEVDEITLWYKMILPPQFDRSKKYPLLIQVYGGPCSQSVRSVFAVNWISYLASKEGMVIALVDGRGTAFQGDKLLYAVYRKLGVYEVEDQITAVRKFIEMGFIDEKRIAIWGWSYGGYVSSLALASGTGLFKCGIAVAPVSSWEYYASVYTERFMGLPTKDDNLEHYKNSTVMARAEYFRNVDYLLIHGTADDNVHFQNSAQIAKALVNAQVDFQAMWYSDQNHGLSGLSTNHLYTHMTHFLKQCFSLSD", "assay": "flow cytometry, HT-1080FAP clone 33 cells, antibody at 20 ng/ml, anti-human IgG FITC"}, "[2]": {"target": "human fibroblast activation protein alpha (FAP), on the cell surface (HT-1080FAP clone 33, 293FAP I/2, MF-SH cells, tumor stromal fibroblasts) (human) (UniProt Q12884)", "assay": "flow cytometry, HT-1080FAP clone 33 cells, antibody at 0.8 ng/ml, anti-human IgG FITC"}, "[3]": {"target": "human fibroblast activation protein alpha (FAP), on the cell surface (HT-1080FAP clone 33, 293FAP I/2, MF-SH cells, tumor stromal fibroblasts) (human) (UniProt Q12884)", "assay": "flow cytometry competition against 1 µg/ml biotinylated cF19 on HT-1080FAP clone 33 cells; competitor at 10.00 µg/ml"}, "[4]": {"target": "human fibroblast activation protein alpha (FAP), on the cell surface (HT-1080FAP clone 33, 293FAP I/2, MF-SH cells, tumor stromal fibroblasts) (human) (UniProt Q12884)", "assay": "flow cytometry competition against 1 µg/ml biotinylated cF19 on HT-1080FAP clone 33 cells; competitor at 1.00 µg/ml"}, "[5]": {"target": "human fibroblast activation protein alpha (FAP), on the cell surface (HT-1080FAP clone 33, 293FAP I/2, MF-SH cells, tumor stromal fibroblasts) (human) (UniProt Q12884)", "assay": "flow cytometry, HT-1080FAP clone 33 cells, biotinylated antibody at 8.0 ng/ml, streptavidin-FITC"}, "[6]": {"target": "human fibroblast activation protein alpha (FAP), on the cell surface (HT-1080FAP clone 33, 293FAP I/2, MF-SH cells, tumor stromal fibroblasts) (human) (UniProt Q12884)", "assay": "flow cytometry competition against 1 µg/ml biotinylated cF19 on HT-1080FAP clone 33 cells; competitor at 31.66 µg/ml"}, "[7]": {"target": "human fibroblast activation protein alpha (FAP), on the cell surface (HT-1080FAP clone 33, 293FAP I/2, MF-SH cells, tumor stromal fibroblasts) (human) (UniProt Q12884)", "assay": "flow cytometry, HT-1080FAP clone 33 cells, biotinylated antibody at 1,000.0 ng/ml, streptavidin-FITC"}, "[8]": {"target": "human fibroblast activation protein alpha (FAP), on the cell surface (HT-1080FAP clone 33, 293FAP I/2, MF-SH cells, tumor stromal fibroblasts) (human) (UniProt Q12884)", "assay": "flow cytometry, HT-1080FAP clone 33 cells, antibody at 4.0 ng/ml, anti-human IgG FITC"}, "[9]": {"target": "human fibroblast activation protein alpha (FAP), on the cell surface (HT-1080FAP clone 33, 293FAP I/2, MF-SH cells, tumor stromal fibroblasts) (human) (UniProt Q12884)", "assay": "flow cytometry, HT-1080FAP clone 33 cells, biotinylated antibody at 40.0 ng/ml, streptavidin-FITC"}, "[10]": {"target": "human fibroblast activation protein alpha (FAP), on the cell surface (HT-1080FAP clone 33, 293FAP I/2, MF-SH cells, tumor stromal fibroblasts) (human) (UniProt Q12884)", "assay": "flow cytometry, MF-SH cells (endogenous FAP), antibody at 4,000 ng/ml"}, "[11]": {"target": "human fibroblast activation protein alpha (FAP), on the cell surface (HT-1080FAP clone 33, 293FAP I/2, MF-SH cells, tumor stromal fibroblasts) (human) (UniProt Q12884)", "assay": "flow cytometry, HT-1080FAP clone 33 cells, biotinylated antibody at 200.0 ng/ml, streptavidin-FITC"}, "[12]": {"target": "human fibroblast activation protein alpha (FAP), on the cell surface (HT-1080FAP clone 33, 293FAP I/2, MF-SH cells, tumor stromal fibroblasts) (human) (UniProt Q12884)", "assay": "flow cytometry, HT-1080FAP clone 33 cells, antibody at 500 ng/ml, anti-human IgG FITC"}, "[13]": {"target": "human fibroblast activation protein alpha (FAP), on the cell surface (HT-1080FAP clone 33, 293FAP I/2, MF-SH cells, tumor stromal fibroblasts) (human) (UniProt Q12884)", "assay": "flow cytometry, HT-1080FAP clone 33 cells, biotinylated antibody at 1.6 ng/ml, streptavidin-FITC"}, "[14]": {"target": "human fibroblast activation protein alpha (FAP), on the cell surface (HT-1080FAP clone 33, 293FAP I/2, MF-SH cells, tumor stromal fibroblasts) (human) (UniProt Q12884)", "assay": "flow cytometry, HT-1080FAP clone 33 cells, biotinylated antibody at 5,000.0 ng/ml, streptavidin-FITC"}, "[15]": {"target": "human fibroblast activation protein alpha (FAP), on the cell surface (HT-1080FAP clone 33, 293FAP I/2, MF-SH cells, tumor stromal fibroblasts) (human) (UniProt Q12884)", "assay": "flow cytometry, HT-1080FAP clone 33 cells, antibody at 100 ng/ml, anti-human IgG FITC"}, "[16]": {"target": "human fibroblast activation protein alpha (FAP), on the cell surface (HT-1080FAP clone 33, 293FAP I/2, MF-SH cells, tumor stromal fibroblasts) (human) (UniProt Q12884)", "assay": "flow cytometry competition against 1 µg/ml biotinylated cF19 on HT-1080FAP clone 33 cells; competitor at 3.16 µg/ml"}}}
{"substance": "hIgG1 (human immunoglobulin, IgG1 subclass), isotype control (antibody)", "values": [{"measurement": "Mean fluorescence intensity", "setting": "[1]", "result": 0.12}, {"measurement": "Mean fluorescence intensity", "setting": "[2]", "result": 0.12}, {"measurement": "Mean fluorescence concentration", "setting": "[3]", "result": 9.8}, {"measurement": "Mean fluorescence concentration", "setting": "[4]", "result": 9}, {"measurement": "Mean fluorescence intensity", "setting": "[5]", "result": 0.2}, {"measurement": "Mean fluorescence concentration", "setting": "[6]", "result": 10.3}, {"measurement": "Mean fluorescence intensity", "setting": "[7]", "result": 0.2}, {"measurement": "Mean fluorescence intensity", "setting": "[8]", "result": 0.12}, {"measurement": "Mean fluorescence intensity", "setting": "[9]", "result": 0.2}, {"measurement": "Mean fluorescence intensity", "setting": "[10]", "result": 0.6}, {"measurement": "Mean fluorescence intensity", "setting": "[11]", "result": 0.2}, {"measurement": "Mean fluorescence intensity", "setting": "[12]", "result": 0.12}, {"measurement": "Mean fluorescence intensity", "setting": "[13]", "result": 0.3}, {"measurement": "Mean fluorescence intensity", "setting": "[14]", "result": 0.2}, {"measurement": "Mean fluorescence intensity", "setting": "[15]", "result": 0.12}, {"measurement": "Mean fluorescence concentration", "setting": "[16]", "result": 11.3}]}
